This experiment concerns the target ArPEC25-mCherry (Ascochyta rabiei). In words: FRET or BRET. A general note: Bioluminescence resonance energy transfer reports proximity on the nanometre scale.

FRET efficiency data for 1 substance are collected here from publication doi:10.1101/2021.09.02.458738.

CaβLIM1a-GFP (natural protein) registered an FRET efficiency of 2.75.
